Test results from article PMC6328254, “Sequential Regulation of Maternal mRNAs through a Conserved cis-Acting Element in Their 3′ UTRs”.

What was measured:
[1] = target: T1, Pumilio RNA-binding domain (UniProt P25822 1091-1426); experiment: EMSA; 50 mM Tris pH 7.5, 150 mM NaCl, 2 mM DTT, 0.1 mg/ul BSA (so in the source), 0.001% Igepal CA-630, dIdC and yeast tRNA; 20 min at RT; 6% native PAGE at 4 C; settings: protein: recombinant; tags: HaloTag (pFN18K) removed by AcTEV cleavage; label: 5'-32P
T1 sequence: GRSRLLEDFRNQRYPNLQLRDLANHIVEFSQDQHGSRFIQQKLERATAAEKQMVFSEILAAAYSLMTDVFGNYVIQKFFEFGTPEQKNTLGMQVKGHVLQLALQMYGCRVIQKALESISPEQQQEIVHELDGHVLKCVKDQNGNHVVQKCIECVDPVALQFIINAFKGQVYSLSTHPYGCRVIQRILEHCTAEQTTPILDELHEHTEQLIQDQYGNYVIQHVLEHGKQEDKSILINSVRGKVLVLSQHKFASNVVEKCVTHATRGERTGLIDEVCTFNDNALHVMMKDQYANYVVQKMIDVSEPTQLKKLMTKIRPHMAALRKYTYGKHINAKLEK

[2] = target: Bruno (UniProt O02374 1-604); experiment: as above; settings: protein: recombinant; tags: His (pETM-82; purified on His GraviTrap); label: 5'-32P
Bruno, sequence (O02374 entry or part of it): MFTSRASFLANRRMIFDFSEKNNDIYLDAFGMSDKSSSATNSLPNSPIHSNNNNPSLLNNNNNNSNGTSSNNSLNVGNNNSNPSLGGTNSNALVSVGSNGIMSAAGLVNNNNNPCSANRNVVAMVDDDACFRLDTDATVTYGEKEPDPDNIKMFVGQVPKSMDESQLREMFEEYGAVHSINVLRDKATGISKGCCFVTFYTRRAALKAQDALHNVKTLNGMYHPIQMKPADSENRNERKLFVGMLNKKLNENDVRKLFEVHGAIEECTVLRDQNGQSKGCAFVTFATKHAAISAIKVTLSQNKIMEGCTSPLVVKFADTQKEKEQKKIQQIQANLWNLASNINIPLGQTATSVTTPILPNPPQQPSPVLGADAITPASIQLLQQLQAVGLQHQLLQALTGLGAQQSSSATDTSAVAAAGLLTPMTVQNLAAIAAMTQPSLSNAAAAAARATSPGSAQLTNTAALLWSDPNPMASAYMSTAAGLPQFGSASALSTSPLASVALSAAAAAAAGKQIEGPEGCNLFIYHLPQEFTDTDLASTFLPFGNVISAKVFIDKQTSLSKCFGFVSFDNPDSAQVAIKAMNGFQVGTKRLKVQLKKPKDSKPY

Binder	binding result [1]	binding result [2]
UUUUUUAAUU (ssRNA) [pgc 3'UTR PRE mutant UUUU]	no binding	no binding
CUUGAAUGUAUGUUAAUUGUAUGUAUUGAU (ssRNA) [osk 3'UTR BRE]	–	binds
UAGACUAUUUGUAAUUUAUAUC (ssRNA) [CycB 3'UTR NRE]	binds	–
UUUGUAAAUU (ssRNA) [pgc 3'UTR PRE/BRE]	binds	binds
UUUCUCAAUU (ssRNA) [pgc 3'UTR PRE mutant UCUC]	no binding	no binding
